For experiment [1], the target named is MERS-CoV spike RBD (Middle East respiratory syndrome-related coronavirus) (UniProt K9N5Q8). The settings on record: cited from earlier work.
Experiment [2] addresses soluble porcine DPP4-IgG1 (porcine) (UniProt P22411). Briefly: SPR; BIAcore X-100, CM5 chip, room temperature; soluble DPP4-IgG1 immobilised by amine coupling; S1-RBD injected at 0.125-4.0 µM in 0.01 M HEPES, 0.15 M NaCl, 0.5% surfactant P20, 3 mM EDTA, pH 7.4; reference cell with BSA; steady-state affinity model. For orientation: In SPR one partner is held on a chip, and binding of the other changes the refractive index at the surface.

Experiment [3] has as its target soluble murine DPP4-IgG1 (murine) (UniProt P28843). The experiment is described as above.
The target in experiment [4] is PHEV spike S1 receptor-binding domain, Fc-tagged. Nature of the experiment: co-immunoprecipitation, quantified band intensity. The settings on record: 293T cells; n = 3; parent: est. 100; read off a plot.

Take DPP4 (from UniProt P27487): the Kd in experiment [1] is 17 nM.

With “monomeric PHEV S1-RBD (SPR analyte) (domain or fragment)”, the Kd turned out to be 174 nM in experiment [2] and 361 nM in experiment [3]. For the substance “murine dipeptidyl peptidase 4, GFP-tagged (from UniProt P28843) A294E; R295E”, the percent of parent (% of RBD binding) in experiment [4] came out at 95. For “murine dipeptidyl peptidase 4, GFP-tagged (from UniProt P28843) A294T; R295T”, the percent of parent (% of RBD binding) in experiment [4] came out at 100. With “murine dipeptidyl peptidase 4, GFP-tagged (from UniProt P28843) K267A”, in experiment [4], the percent of parent (% of RBD binding) was determined as 110. The same measure, in the same setting: to “murine dipeptidyl peptidase 4, GFP-tagged (from UniProt P28843) N229Q” belongs 350; to “murine dipeptidyl peptidase 4, GFP-tagged (from UniProt P28843) N321Q”, 250. “murine dipeptidyl peptidase 4, GFP-tagged (from UniProt P28843) Q344A”: in experiment [4], the percent of parent (% of RBD binding) amounted to 120. Same read-out and setting: to “murine dipeptidyl peptidase 4, GFP-tagged (from UniProt P28843) R317A” belongs 92. With “murine dipeptidyl peptidase 4, GFP-tagged (from UniProt P28843) T336E”, the percent of parent (% of RBD binding) in experiment [4] was 100. Turning to “porcine dipeptidyl peptidase 4, GFP-tagged (from UniProt P22411) K267A”, the percent of parent (% of RBD binding) in experiment [4] came to 84. As to “porcine dipeptidyl peptidase 4, GFP-tagged (from UniProt P22411) L294E; I295E”, the percent of parent (% of RBD binding) in experiment [4] came out at 110. As for “porcine dipeptidyl peptidase 4, GFP-tagged (from UniProt P22411) L294T; I295T”, in experiment [4], the percent of parent (% of RBD binding) was 82. On the same count and under the same terms, to “porcine dipeptidyl peptidase 4, GFP-tagged (from UniProt P22411) N229Q” belongs 190. On the same count and under the same terms, with “porcine dipeptidyl peptidase 4, GFP-tagged (from UniProt P22411) N321Q” the figure was 170; with “porcine dipeptidyl peptidase 4, GFP-tagged (from UniProt P22411) Q344A”, 130. With “porcine dipeptidyl peptidase 4, GFP-tagged (from UniProt P22411) R317A”, the percent of parent (% of RBD binding) in experiment [4] was found to be 98. For the substance “porcine dipeptidyl peptidase 4, GFP-tagged (from UniProt P22411) R336E”, in experiment [4], the percent of parent (% of RBD binding) was determined as 120.

For orientation: Kd means the constant that tells how readily two partners part at equilibrium.
